{"source": "patent US20020102706A1", "about": "(published 2002)", "binders": {"B1": {"name": "full-length native sequence human Apo-2DcR (receptor)", "chain": "ATTARQEEVPQQTVAPQQQRHSFKGEECPAGSHRSEHTGACNPCTEGVDYTNASNNEPSCFPCTVCKSDQKHKSSCTMTRDTVCQCKEGTFRNENSPEMCRKCSRCPSGEVQVSNCTSWDDIQCVEEFGANATVETPAAEETMNTSPGTPAPAAEETMNTSPGTPAPAAEETMTTSPGTPAPAAEETMTTSPGTPAPAAEETMTTSPGTPA", "notes": "also called Apo-2DcR receptor; pRK5-hApo-2DcR product"}}, "molecular_target": "T1, Apo-2 ligand (soluble Apo-2L, Pitti et al.) (UniProt P50591 114-281)", "T1 construct": "also called TRAIL; 125I-Apo-2L", "T1 sequence (P50591 114-281 limits assumed)": "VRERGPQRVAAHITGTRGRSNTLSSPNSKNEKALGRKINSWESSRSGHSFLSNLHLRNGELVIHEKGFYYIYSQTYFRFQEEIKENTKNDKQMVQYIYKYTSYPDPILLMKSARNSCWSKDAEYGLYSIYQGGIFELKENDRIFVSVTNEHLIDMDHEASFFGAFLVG", "test": "125I-Apo-2L binding to Apo-2DcR-transfected 293 cells; nonspecific binding with 0.5 ug/ml unlabeled Apo-2L", "procedure": "The effect of pre-treatment of the cells with phosphatidylinositol-specific phospholipase C (PI-PLC) on the binding was also analyzed.\n(1 μg/ml) was added to one of the two aliquots derived from each transfection, 5 and the cells were incubated 1 hour at 37° C. The cells were washed and respuspended in 1 ml PBS containing 1% BSA (Sigma), and 0.04 ml aliquots were placed into tubes in triplicate. […] After a 1 hour incubation at room temperature, the cells were washed in ice cold PBS, pelleted, and counted for radioactivity.", "data": [{"binder": "B1", "values": [{"measurement": "binding result", "value": "binds"}]}]}
